Several values for one entry are separate records, joined by “and”; a condition that tells them apart may be missing. Identical values can stand only once.

From patent US20150239933A1 (GEORGETOWN UNIVERSITY, published 2015) come the findings set out here.

The chains are these.
B1: tubulin α4 C-terminal tail (CTT) peptide, Δ2 isoform (peptide)
peptide: EDEDEGE
notes: Synthetic peptide from GenScript; also called α4 Δ2 isoform
B2: tubulin α1A/1B C-terminal tail (CTT) peptide, more basic variant EGEGEEEGQQQ (peptide)
peptide: EGEGEEEGQQQ
notes: Synthetic variant peptide from GenScript; also called α1A/1B more basic
B3: Human recombinant TUBB3 (other)
chain: MREIVHIQAGQCGNQIGAKFWEVISDEHGIDPSGNYVGDSDLQLERISVYYNEASSHKYVPRAILVDLEPGTMDSVRSGAFGHLFRPDNFIFGQSGAGNNWAKGHYTEGAELVDSVLDVVRKECENCDCLQGFQLTHSLGGGTGSGMGTLLISKVREEYPDRIMNTFSVVPSPKVSDTVVEPYNATLSIHQLVENTDETYCIDNEALYDICFRTLKLATPTYGDLNHLVSATMSGVTTSLRFPGQLNADLRKLAVNMVPFPRLHFFMPGFAPLTARGSQQYRALTVPELTQQMFDAKNMMAACDPRHGRYLTVATVFRGRMSMKEVDEQMLAIQSKNSSYFVEWIPNNVKVAVCDIPPRGLKMSSTFIGNSTAIQELFKRISEQFTAMFRRKAFLHWYTGEGMDEMEFTEAESNMNDLVSEYQQYQDATAEEEGEMYEDDEEESEAQGPK
notes: Bought protein; immobilised by amine coupling in SPR, in solution in the dot blot; also called tubulin β-3; Tubulin β-3
B4: tubulin α4 C-terminal tail (CTT) peptide, tyrosinated isoform (peptide)
peptide: EDEDEGEEY
notes: Synthetic peptide from GenScript; also called α4 tyrosinated isoform
B5: tubulin α1A/1B C-terminal tail (CTT) peptide, more basic variant EGEGEEEGQQQQ (peptide)
peptide: EGEGEEEGQQQQ
notes: as for B2
B6: tubulin α4 C-terminal tail (CTT) peptide, detyrosinated isoform (peptide)
peptide: EDEDEGEE
notes: Synthetic peptide from GenScript; also called α4 detyrosinated isoform
B7: tubulin α1A/1B C-terminal tail (CTT) peptide, tyrosinated isoform (peptide)
peptide: EGEGEEEGEEY
notes: Synthetic peptide from GenScript; also called α1A/1B tyrosinated isoform
B8: tubulin α1A/1B C-terminal tail (CTT) peptide, detyrosinated isoform (peptide)
peptide: EGEGEEEGEE
notes: Synthetic peptide from GenScript; also called α1A/1B detyrosinated isoform
B9: tubulin α1A/1B C-terminal tail (CTT) peptide, more basic variant EGEGEEEGQQ (peptide)
peptide: EGEGEEEGQQ
notes: as for B2

In test [1] the target is T1, gp120IIIB (HIV, UniProt P04578 33-511).
T1 construct: Bought protein
Briefly: dot blot: 2 µg peptide spotted, 5 µg gp120IIIB in 20 mL, anti-gp120 antibody.
Procedure: Dot blot analysis: CTTs or Helix-A and -B peptides (2 μg each) were spotted on a nitrocellulose membrane and allowed to dry. […] The membranes were washed and then incubated with a mouse anti-gp120 antibody (1:1000; Immunodiagnostics, Inc.) or mouse anti-TUBB3 antibody (1:5000; Covance, NJ) in TBST for 2 hours. Membranes were washed and incubated in goat anti-mouse HP-conjugated secondary antibody (1:20,000; Jackson ImmunoResearch Laboratories, Inc., PA). Visualization of the bands was then accomplished by the addition of PIERCE® SUPERSIGNAL™ West Pico-Stable Peroxidase Solution and Luminol/Enhancer Solution (Pierce Biotechnology, Inc., Rockford, Ill.).
Following incubation with a corresponding HRP-conjugated secondary antibody 1 hour at RT, the immunocomplexes were visualized with chemiluminescence.

In test [2] the target is T1, gp120IIIB. The test can be described thus: SPR Biacore T200, TUBB3 amine-coupled to CM5, gp120 3.13-100 nM as analyte, 1:1 model; one of two experiments.
Test [3] addresses T2, gp120MN (HIV, UniProt P05877 32-513).
T2 construct: Bought protein; only its gp120 part would apply; also called GP-MN
The test is described as above.

Test [4] has as its target T1, gp120IIIB. The test can be described thus: SPR Biacore T200, TUBB3 immobilised, 1:1 model; mean of two experiments. In general terms: Surface plasmon resonance follows binding to a sensor surface in real time, without labels.
Procedure: (§1) After ligand capture, the surfaces were deactivated by injecting 1 M ethanolamine for 720 sec at 10 μL/min. HBS-P (10 mM HEPES, pH7.4, 150 mM NaCl, 0.05% P-20) with 2 mM MgCl₂ used as the running buffer. Flow cell 1 on each chip was left empty and used for reference surface. […] Kinetic studies were performed by injecting different concentrations of the analytes in triplicate. The chip surface was regenerated by with 10 mM glycine pH 1.5 injected for 30 sec at a flow rate of 100 μL/min. Each sample was injected for 60 sec (contact time) followed by a dissociation time of 300 sec at a flow rate of 100 μL/min. Data was analyzed with BIACORE® T200™ Evaluation Software (version 1) to determine the equilibrium dissociation constant (KD) from a 1:1 binding model.
(§2) Recombinant TUBB3, tubulin dimer, and assembled MTs from bovine brains were immobilized on a BIACORE® CM5 chip by amine coupling. […] The kinetics of interaction was analyzed using a BIACORE® T200™ instrument. BiaEvaluation software was used to calculate binding affinities based on 1:1 binding model.
Test [5] concerns the target T2, gp120MN. The test is described as above.
Procedure: as §1, §2
The test “Human recombinant TUBB3” has as its target B3. The test can be described thus: SPR (Biacore T200), recombinant TUBB3 amine-coupled to a CM5 chip, peptide as analyte at 625 nM to 20 µM.
For test [6], the target named is T3, assembled microtubules (containing ~25% of TUBB3) (porcine, UniProt F1S6M7 41-471).
T3 construct: also called assembled MTs; MTs
The test can be described thus: SPR Biacore T200, 60 sec injection of 10 uM over immobilised microtubules, reference-subtracted.

For B1, the binding result with gp120IIIB [1] is listed as “no binding”.

As for EEEEGEDEA (Synthetic peptide from GenScript) [tubulin β2A/2B C-terminal tail (CTT) peptide], the binding result in the test with gp120IIIB [1] was “no binding”.

In the case of B2, in the test with gp120IIIB [1], the binding result is given as “no binding”.

One may read the Kd as a measure of binding affinity in units of concentration. High values mean lower affinity, low ones higher affinity. For B3, the Kd in the test with gp120IIIB [2] was 7.91 nM and 7.05 nM; with gp120MN [3] it was 901 nM and 579 nM; with gp120IIIB [4], 7.5 nM; with gp120MN [5], 740 nM.

On to B4, for which the binding result with gp120IIIB [1] is on record as “no binding”.

For the molecule B5, the binding result in the test with gp120IIIB [1] was “no binding”.

Take B6: in the test with gp120IIIB [1], the binding result is on record as “no binding”.

For B7, the binding result with gp120IIIB [1] is on record as “no binding”.

Take RAKWNNTLKQIASK (Synthetic peptide from GenScript) [Helix-B peptide]: the binding result with Human recombinant TUBB3 is listed as “no binding (tested: 20 µM)”. For the same molecule, in test [6], the “response (4-1) RU” value is 0.2 RU.

For B8, the binding result with gp120IIIB [1] is reported as “no binding”.

In the case of B9, the binding result with gp120IIIB [1] was “no binding”.
